# Measurements from publication PMC9482650, “Quantitative fragmentomics allow affinity mapping of interactomes” (Nature Communications, 2022).
# T1: APBA2_1, Q99767
# T1 sequence (Q99767 563-664, limits assumed, looked up): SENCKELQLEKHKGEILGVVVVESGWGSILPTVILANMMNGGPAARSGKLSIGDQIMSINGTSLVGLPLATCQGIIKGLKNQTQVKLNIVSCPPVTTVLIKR
# T2: APBA2_2, Q99767
# T2 sequence (Q99767 654-744, limits assumed, looked up): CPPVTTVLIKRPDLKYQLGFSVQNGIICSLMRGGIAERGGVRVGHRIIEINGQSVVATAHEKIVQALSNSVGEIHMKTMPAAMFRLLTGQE
# T3: ARHGAP21, Q5T5U3
# T3 sequence (Q5T5U3 45-169, limits assumed, looked up): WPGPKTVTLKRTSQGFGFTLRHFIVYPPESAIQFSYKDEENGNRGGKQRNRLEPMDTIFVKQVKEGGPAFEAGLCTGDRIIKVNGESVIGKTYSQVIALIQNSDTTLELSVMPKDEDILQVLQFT
# T4: DFNB31_2, Q9P202
# T4 sequence (Q9P202 274-371, limits assumed, looked up): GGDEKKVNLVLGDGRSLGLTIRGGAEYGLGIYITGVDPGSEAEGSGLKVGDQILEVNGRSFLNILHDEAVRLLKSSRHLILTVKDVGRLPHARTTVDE
# T5: DLG3_1, Q92796
# T5 sequence (Q92796 125-227, limits assumed, looked up): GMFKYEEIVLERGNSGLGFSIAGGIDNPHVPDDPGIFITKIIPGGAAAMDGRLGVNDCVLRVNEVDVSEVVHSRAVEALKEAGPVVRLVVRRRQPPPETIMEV
# T6: GRIP1_7, Q9Y3R0
# T6 sequence (Q9Y3R0 999-1096, limits assumed, looked up): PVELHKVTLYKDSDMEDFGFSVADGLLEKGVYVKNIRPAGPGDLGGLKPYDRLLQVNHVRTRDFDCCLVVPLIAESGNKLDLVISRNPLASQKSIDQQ
# T7: LRRC7, Q96NW7
# T7 sequence (Q96NW7 1440-1537, limits assumed, looked up): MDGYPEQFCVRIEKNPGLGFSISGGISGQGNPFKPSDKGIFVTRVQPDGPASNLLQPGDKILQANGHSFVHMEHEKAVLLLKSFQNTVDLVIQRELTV
# T8: NHERF3_1, Q5T2W1
# T8 sequence (Q5T2W1 4-100, limits assumed, looked up): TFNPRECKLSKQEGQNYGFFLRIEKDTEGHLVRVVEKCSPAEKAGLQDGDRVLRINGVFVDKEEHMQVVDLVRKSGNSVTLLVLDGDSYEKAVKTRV
# T9: NHERF3_3, Q5T2W1
# T9 sequence (Q5T2W1 238-333, limits assumed, looked up): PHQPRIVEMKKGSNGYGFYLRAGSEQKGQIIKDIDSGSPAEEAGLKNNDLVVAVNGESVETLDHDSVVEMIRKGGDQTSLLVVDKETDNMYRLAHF
# T10: NHERF3_4, Q5T2W1
# T10 sequence (Q5T2W1 373-468, limits assumed, looked up): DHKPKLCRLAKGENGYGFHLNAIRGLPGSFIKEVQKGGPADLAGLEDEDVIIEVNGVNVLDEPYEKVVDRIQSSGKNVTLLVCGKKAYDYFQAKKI
# T11: PTPN13_1, Q12923
# T11 sequence (Q12923 1088-1188, limits assumed, looked up): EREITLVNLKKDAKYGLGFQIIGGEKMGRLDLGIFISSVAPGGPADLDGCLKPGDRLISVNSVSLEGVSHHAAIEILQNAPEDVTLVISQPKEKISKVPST
# T12: SIPA1L2, Q9P2F8
# T12 sequence (Q9P2F8 945-1036, limits assumed, looked up): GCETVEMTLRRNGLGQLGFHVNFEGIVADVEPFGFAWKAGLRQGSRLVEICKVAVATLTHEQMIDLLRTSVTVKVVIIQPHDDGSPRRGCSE
# Assays:
# Experiment in all cases: holdup assay
# Parameters in all cases: key: below the threshold = too weak to quantify, mostly under pKd 3.1 to 4
# Conditions in all cases: plain residues with an end cap or a label only (N-terminal biotin on a linker: ado-ado)
# APBA2_1, Q99767 = target: T1, APBA2_1, Q99767
# APBA2_2, Q99767 = target: T2, APBA2_2, Q99767
# ARHGAP21, Q5T5U3 = target: T3, ARHGAP21, Q5T5U3
# DFNB31_2, Q9P202 = target: T4, DFNB31_2, Q9P202
# DLG1_2, Q12959 = target: DLG1_2, Q12959
# DLG1_2, Q12959, sequence (Q12959 314-412): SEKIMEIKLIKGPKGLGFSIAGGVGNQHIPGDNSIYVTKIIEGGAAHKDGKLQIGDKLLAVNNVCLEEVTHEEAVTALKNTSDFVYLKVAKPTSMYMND
# DLG1_3, Q12959 = target: DLG1_3, Q12959
# DLG1_3, Q12959, sequence (Q12959 457-571): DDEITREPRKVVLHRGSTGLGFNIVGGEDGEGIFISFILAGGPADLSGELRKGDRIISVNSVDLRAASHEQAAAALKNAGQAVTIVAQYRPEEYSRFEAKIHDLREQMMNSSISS
# DLG2_2, Q15700 = target: DLG2_2, Q15700
# DLG2_2, Q15700, sequence (Q15700 189-283): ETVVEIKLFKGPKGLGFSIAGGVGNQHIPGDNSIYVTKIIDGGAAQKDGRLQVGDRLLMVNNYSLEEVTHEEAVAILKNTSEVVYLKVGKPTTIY
# DLG3_1, Q92796 = target: T5, DLG3_1, Q92796
# FRMPD2_1, Q68DX3 = target: FRMPD2_1, Q68DX3
# FRMPD2_1, Q68DX3, sequence (Q68DX3 770-861): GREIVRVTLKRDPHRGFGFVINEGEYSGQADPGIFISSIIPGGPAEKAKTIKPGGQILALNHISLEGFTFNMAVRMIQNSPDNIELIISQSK
# FRMPD4, Q14CM0 = target: FRMPD4, Q14CM0
# FRMPD4, Q14CM0, sequence (Q14CM0 67-160): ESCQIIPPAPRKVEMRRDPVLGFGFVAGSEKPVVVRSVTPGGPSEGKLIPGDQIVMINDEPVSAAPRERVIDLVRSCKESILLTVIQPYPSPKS
# GIPC2, Q8TF65 = target: GIPC2, Q8TF65
# GIPC2, Q8TF65, sequence (Q8TF65 112-203): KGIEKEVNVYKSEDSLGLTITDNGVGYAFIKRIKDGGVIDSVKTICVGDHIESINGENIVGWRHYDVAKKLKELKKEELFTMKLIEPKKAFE
# GRID2IP_1, A4D2P6 = target: GRID2IP_1, A4D2P6
# GRID2IP_1, A4D2P6, sequence (A4D2P6 1-87): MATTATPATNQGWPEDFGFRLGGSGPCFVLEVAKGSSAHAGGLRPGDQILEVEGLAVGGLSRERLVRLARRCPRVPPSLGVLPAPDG
# GRIP1_7, Q9Y3R0 = target: T6, GRIP1_7, Q9Y3R0
# GRIP2_7, Q9C0E4 = target: GRIP2_7, Q9C0E4
# GRIP2_7, Q9C0E4, sequence (Q9C0E4 934-1023): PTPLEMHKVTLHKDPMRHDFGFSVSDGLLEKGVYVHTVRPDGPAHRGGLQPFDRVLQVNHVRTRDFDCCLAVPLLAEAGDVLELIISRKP
# HTRA2, O43464 = target: HTRA2, O43464
# HTRA2, O43464, sequence (O43464 355-458): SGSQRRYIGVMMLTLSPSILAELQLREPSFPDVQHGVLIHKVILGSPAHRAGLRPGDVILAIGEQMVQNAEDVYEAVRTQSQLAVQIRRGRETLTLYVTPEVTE
# IL16_4, Q14005 = target: IL16_4, Q14005
# IL16_4, Q14005, sequence (Q14005 1229-1329): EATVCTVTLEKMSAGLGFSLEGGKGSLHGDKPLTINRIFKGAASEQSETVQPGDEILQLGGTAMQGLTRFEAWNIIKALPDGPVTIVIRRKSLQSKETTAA
# Inadl_2, Q8NI35 = target: Inadl_2, Q8NI35
# Inadl_2, Q8NI35, sequence (Q8NI35 238-335): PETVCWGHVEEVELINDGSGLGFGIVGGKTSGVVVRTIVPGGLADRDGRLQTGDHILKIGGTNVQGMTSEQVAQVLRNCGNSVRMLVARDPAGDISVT
# Inadl_5, Q8NI35 = target: Inadl_5, Q8NI35
# Inadl_5, Q8NI35, sequence (Q8NI35 673-780): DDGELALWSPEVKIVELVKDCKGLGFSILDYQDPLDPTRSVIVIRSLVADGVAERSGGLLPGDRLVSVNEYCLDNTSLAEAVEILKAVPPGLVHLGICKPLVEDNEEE
# LRRC7, Q96NW7 = target: T7, LRRC7, Q96NW7
# MAGI2_2, Q86UL8 = target: MAGI2_2, Q86UL8
# MAGI2_2, Q86UL8, sequence (Q86UL8 410-522): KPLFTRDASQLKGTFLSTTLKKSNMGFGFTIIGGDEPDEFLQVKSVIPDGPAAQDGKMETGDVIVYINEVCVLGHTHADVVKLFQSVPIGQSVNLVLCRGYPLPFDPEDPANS
# MAGI2_3, Q86UL8 = target: MAGI2_3, Q86UL8
# MAGI2_3, Q86UL8, sequence (Q86UL8 600-682): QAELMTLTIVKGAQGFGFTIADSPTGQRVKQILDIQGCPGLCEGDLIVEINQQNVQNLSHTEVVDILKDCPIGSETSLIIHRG
# NHERF3_1, Q5T2W1 = target: T8, NHERF3_1, Q5T2W1
# NHERF3_3, Q5T2W1 = target: T9, NHERF3_3, Q5T2W1
# NHERF3_4, Q5T2W1 = target: T10, NHERF3_4, Q5T2W1
# PTPN13_1, Q12923 = target: T11, PTPN13_1, Q12923
# SIPA1L2, Q9P2F8 = target: T12, SIPA1L2, Q9P2F8
binder,measurement,setting,value
"PALKNGQYWV [CSPG4, Q6UVK1]",pKd,"APBA2_1, Q99767",below the threshold
same,pKd,"APBA2_2, Q99767",below the threshold
same,pKd,"ARHGAP21, Q5T5U3",below the threshold
same,pKd,"DFNB31_2, Q9P202",below the threshold
same,pKd,"DLG1_2, Q12959",below the threshold
same,pKd,"DLG1_3, Q12959",below the threshold
same,pKd,"DLG2_2, Q15700",below the threshold
same,pKd,"DLG3_1, Q92796",below the threshold
same,pKd,"FRMPD2_1, Q68DX3",3.82
same,pKd,"FRMPD4, Q14CM0",3.68
same,pKd,"GIPC2, Q8TF65",below the threshold
same,pKd,"GRID2IP_1, A4D2P6",below the threshold
same,pKd,"GRIP1_7, Q9Y3R0",5.63
same,pKd,"GRIP2_7, Q9C0E4",5.83
same,pKd,"HTRA2, O43464",4.72
same,pKd,"IL16_4, Q14005",below the threshold
same,pKd,"Inadl_2, Q8NI35",4.38
same,pKd,"Inadl_5, Q8NI35",4.31
same,pKd,"LRRC7, Q96NW7",3.7
same,pKd,"MAGI2_2, Q86UL8",below the threshold
same,pKd,"MAGI2_3, Q86UL8",below the threshold
same,pKd,"NHERF3_1, Q5T2W1",below the threshold
same,pKd,"NHERF3_3, Q5T2W1",below the threshold
same,pKd,"NHERF3_4, Q5T2W1",below the threshold
same,pKd,"PTPN13_1, Q12923",below the threshold
same,pKd,"SIPA1L2, Q9P2F8",below the threshold
"WAKEKQHTRL [SLC17A1, Q14916]",pKd,"APBA2_1, Q99767",below the threshold
same,pKd,"APBA2_2, Q99767",below the threshold
same,pKd,"ARHGAP21, Q5T5U3",3.81
same,pKd,"DFNB31_2, Q9P202",below the threshold
same,pKd,"DLG1_2, Q12959",4.27
same,pKd,"DLG1_3, Q12959",below the threshold
same,pKd,"DLG2_2, Q15700",3.82
same,pKd,"DLG3_1, Q92796",below the threshold
same,pKd,"FRMPD2_1, Q68DX3",below the threshold
same,pKd,"FRMPD4, Q14CM0",3.97
same,pKd,"GIPC2, Q8TF65",below the threshold
same,pKd,"GRID2IP_1, A4D2P6",below the threshold
same,pKd,"GRIP1_7, Q9Y3R0",below the threshold
same,pKd,"GRIP2_7, Q9C0E4",below the threshold
same,pKd,"HTRA2, O43464",below the threshold
same,pKd,"IL16_4, Q14005",below the threshold
same,pKd,"Inadl_2, Q8NI35",below the threshold
same,pKd,"Inadl_5, Q8NI35",below the threshold
same,pKd,"LRRC7, Q96NW7",below the threshold
same,pKd,"MAGI2_2, Q86UL8",4.71
same,pKd,"MAGI2_3, Q86UL8",below the threshold
same,pKd,"NHERF3_1, Q5T2W1",4.73
same,pKd,"NHERF3_3, Q5T2W1",4.28
same,pKd,"NHERF3_4, Q5T2W1",4.11
same,pKd,"PTPN13_1, Q12923",below the threshold
same,pKd,"SIPA1L2, Q9P2F8",below the threshold
"YAEKRMLTEV [KCNA6, P17658]",pKd,"APBA2_1, Q99767",below the threshold
same,pKd,"APBA2_2, Q99767",below the threshold
same,pKd,"ARHGAP21, Q5T5U3",below the threshold
same,pKd,"DFNB31_2, Q9P202",below the threshold
same,pKd,"DLG1_2, Q12959",4.23
same,pKd,"DLG1_3, Q12959",below the threshold
same,pKd,"DLG2_2, Q15700",4.15
same,pKd,"DLG3_1, Q92796",below the threshold
same,pKd,"FRMPD2_1, Q68DX3",below the threshold
same,pKd,"FRMPD4, Q14CM0",below the threshold
same,pKd,"GIPC2, Q8TF65",below the threshold
same,pKd,"GRID2IP_1, A4D2P6",below the threshold
same,pKd,"GRIP1_7, Q9Y3R0",below the threshold
same,pKd,"GRIP2_7, Q9C0E4",below the threshold
same,pKd,"HTRA2, O43464",below the threshold
same,pKd,"IL16_4, Q14005",below the threshold
same,pKd,"Inadl_2, Q8NI35",below the threshold
same,pKd,"Inadl_5, Q8NI35",below the threshold
same,pKd,"LRRC7, Q96NW7",below the threshold
same,pKd,"MAGI2_2, Q86UL8",4.33
same,pKd,"MAGI2_3, Q86UL8",below the threshold
same,pKd,"NHERF3_1, Q5T2W1",below the threshold
same,pKd,"NHERF3_3, Q5T2W1",below the threshold
same,pKd,"NHERF3_4, Q5T2W1",below the threshold
same,pKd,"PTPN13_1, Q12923",below the threshold
same,pKd,"SIPA1L2, Q9P2F8",below the threshold
"GVHSNDHSVV [LPAR1, Q92633]",pKd,"APBA2_1, Q99767",below the threshold
same,pKd,"APBA2_2, Q99767",below the threshold
same,pKd,"ARHGAP21, Q5T5U3",below the threshold
same,pKd,"DFNB31_2, Q9P202",below the threshold
same,pKd,"DLG1_2, Q12959",3.99
same,pKd,"DLG1_3, Q12959",below the threshold
same,pKd,"DLG2_2, Q15700",3.74
same,pKd,"DLG3_1, Q92796",below the threshold
same,pKd,"FRMPD2_1, Q68DX3",below the threshold
same,pKd,"FRMPD4, Q14CM0",below the threshold
same,pKd,"GIPC2, Q8TF65",below the threshold
same,pKd,"GRID2IP_1, A4D2P6",below the threshold
same,pKd,"GRIP1_7, Q9Y3R0",below the threshold
same,pKd,"GRIP2_7, Q9C0E4",below the threshold
same,pKd,"HTRA2, O43464",below the threshold
same,pKd,"IL16_4, Q14005",3.76
same,pKd,"Inadl_2, Q8NI35",below the threshold
same,pKd,"Inadl_5, Q8NI35",below the threshold
same,pKd,"LRRC7, Q96NW7",below the threshold
same,pKd,"MAGI2_2, Q86UL8",3.69
same,pKd,"MAGI2_3, Q86UL8",below the threshold
same,pKd,"NHERF3_1, Q5T2W1",below the threshold
same,pKd,"NHERF3_3, Q5T2W1",below the threshold
same,pKd,"NHERF3_4, Q5T2W1",below the threshold
same,pKd,"PTPN13_1, Q12923",below the threshold
same,pKd,"SIPA1L2, Q9P2F8",below the threshold
